The source of these data is US20040204561A1, “Peptide aggregates” (priority 2002, published 2004).

The nature of data set [1]: Aggregation / gel formation behaviour in aqueous solution. The data set is classed as physicochemical. The procedure:
EP1272L (0.0842 g) was suspended in 2 mL water. To this were added 160 μL 1N NaOH, bringing the pH of the solution to 7.5. The volume was taken to 5 mL with addition of water and the solution gently swirled until all solids were dissolved. The chelatables were monitored by titration using xylenol orange as an indicator for free gadolinium. Following titration, 86.4 μL of 241 mM stock solution of GdCl3 was added to the solution with stirring followed by 60 μL 1N NaOH. Low mass impurities were removed from the solution by centrifugation over a 0.02 μm anapore membrane (Vecta-Spin). This was followed by resuspension in 20 mL of water and filtration over a 5 μm (Durapore, low protein binding) syringe filter frit. At concentrations greater than 0.5 mM, EP1272L became a non-flowing viscous gel.
As described in Examples 1-8, a self-assembling peptide having the sequence AEAEAKAKAEAEAKAK (SEQ ID NO: 1) was chemically modified to include a metal binding moiety (an organic chelating ligand) via a glycine linker to the N-terminus of the peptide; see EP1272L in FIG. 3. Modified self-assembling peptides having the same metal binding moiety at the N-terminus and further including acidic moieties at the C-terminus of the peptide were also made (see EP 1593L and EP1594L in FIG. 3).

Data set [2] in a line: Relaxivity measurements in PBS (T1, inversion recovery). The data set is classed as physicochemical. An excerpt: First, solutions of EP 1272L (FW=2,243 Da) were concentrated and purified by centrifugation in a filter device with a nominal molecular weight limit of 300,000 Da. The formation of high molecular weight aggregates allowed EP1272L to be retained by the filter device. […] Third, SEC-LS column retention and light scattering measurements of EP1272L were consistent with a large species having a mass distribution of 4×10^6 to 13×10^6 Da, and a hydrodynamic radius in the range of 155 nm to 210 nm.
Relaxivity measurements were made in PBS. A relaxivity titration consisting of sequential additions of EP1272L (complexed to Gd(III)) to a tube containing approximately 0.6 mL of PBS was performed. Following each addition of EP1272, the sample was thoroughly mixed by manual agitation and the temperature allowed to equilibrate for 10 minutes at 37±2° C. prior to T1 determination. The longitudinal (T1) relaxation time was determined by use of the inversion recovery pulse sequence and fitting the intensity data to an exponential decay. Measurements at 20 MHz were made using a Bruker Minispec PC 120/125/Vts nuclear magnetic resonance process analyzer. The temperature was regulated with a Haake D8-GH circulating bath at 37±2° C. Measurements at 64.5 MHz were made using a Varian XL300 adjusted to a field strength of 1.5 T with a broad band variable temperature probe tuned to 64.5 MHz. The relaxivity of EP1272 at 0.5 T and 1.5 T were 24.9 mM^−1s^−1 and 21.0 mM^−1s^−1 respectively. The relaxivity of EP1593 at 0.5 T was assessed in a similar manner and was 19.9 mM^−1s^−1. The relaxivity of EP1594 was assessed in a similar manner at 0.5 T and was 22.0 mM^−1s^−1.

The target in data set [3] is streptavidin magnetic beads (Streptomyces avidinii, UniProt P22629). In words: Avidin affinity assay: capture by streptavidin magnetic beads, quantified by gadolinium ICP. The class given is binding. The note with it: capture by streptavidin-coated beads, FIG. 8. The procedure:
Two self-assembling peptides comprising target binding moieties were prepared (FIG. 7). EP1595 contained a C-terminal biotin target binding moiety; EP 1596 contained a C-terminal aromatic target binding moiety (phenylundecane).
EP1272L aggregates were targeted to avidin by incorporation of a biotinylated peptide (e.g., an assembling peptide containing a target binding moiety (EP1595)) into the aggregates. To 70 μL of a 1.54 mM stock solution of EP1272L was added varying amounts of EP1595. The pH was then reduced to 1.5 by addition of 1N HCl to induce mixing of the peptides. The solution was neutralized by addition of 1N NaOH and the volume brought to 500 μL with addition of water. Aggregates containing 20% biotinylated peptide (5:1 ratio of EP1272 to EP1595), 4% biotinylated-peptide (25:1 ratio), and 0.5% biotinylated peptide (200:1) were prepared.
EP1272L aggregates containing the phenylundecane substituted peptide, EP1596, in a 10:1 ratio were prepared as described above.
The three EP1595/EP1272 formulations, one EP1596/EP1272 formulation, and an EP1272 formulation were assayed for affinity to streptavidin magnetic beads. Each sample was diluted so as to maintain a constant ratio of biotinylated peptide and streptavidin binding sites in the assay. Solutions without biotin were treated as though they contained 0.5% EP1595. […] The extent of capture was quantified by gadolinium ICP.

Primed or numbered codes have the meaning given here. Ends that are not written are not given here. bbDTPA = DTPA chelating ligand bonded through a carbon of its ethylene backbone; bbDTPA″ = DTPA chelating ligand bound through a backbone ethylene carbon

Chain of streptavidin magnetic beads (P22629 25-183): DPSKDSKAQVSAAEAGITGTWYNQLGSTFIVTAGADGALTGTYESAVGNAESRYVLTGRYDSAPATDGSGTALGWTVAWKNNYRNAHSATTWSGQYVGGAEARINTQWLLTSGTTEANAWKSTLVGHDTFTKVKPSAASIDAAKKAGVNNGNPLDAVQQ

In the case of “AEAEAKAKAEAEAKAK (Targeted aggregate peptide) [reference compound]”, the “aggregation behaviour (macroscopic membrane formation)” value (shortened to “aggregation behaviour”) in data set [1] is recorded as “tended to form macroscopic membranes”.
For “EP1272: EP1272L complexed to Gd(III) (GAEAEAKAKAEAEAKAK)”, the relaxivity in data set [2] (0.5 T (20 MHz), 37±2° C.) came to 24.9 mM⁻¹ s⁻¹; in data set [2] (1.5 T (64.5 MHz), 37±2° C.), 21.0 mM⁻¹ s⁻¹.
For “EP1272L: self-assembling peptide AEAEAKAKAEAEAKAK (SEQ ID NO: 1) with bbDTPA chelating ligand via a glycine linker at the N-terminus (bbDTPA-GAEAEAKAKAEAEAKAK)”, the “aggregation behaviour” value in data set [1] is “tended to aggregate, but did not form macroscopic membranes”. In addition, in data set [1] (aqueous solution after complexing with Gd(III)), the “concentration above which a non-flowing viscous gel forms” value is “greater than 0.5 mM”. Further, the “affinity for streptavidin beads” value in data set [3] was “substantially less affinity for streptavidin beads”. Also, the relaxivity is 25 mM⁻¹ s⁻¹ in data set [2] (0.47 T) and 21 mM⁻¹ s⁻¹ in data set [2] (1.5 T (64.5 MHz), 37±2° C.).
Substance “EP1593: EP1593L complexed to Gd(III) (GAEAEAKAKAEAEAKAK)” gave a relaxivity in data set [2] (0.5 T (20 MHz), 37±2° C.) of 19.9 mM⁻¹ s⁻¹.
In the case of “EP1593L: self-assembling peptide having a covalently attached metal binding moiety (bbDTPA) and an acidic group at the C-terminus ({bbDTPA″}-GAEAEAKAKAEAEAKAK; also: acidic group at C-terminus, not given here)”, the “aggregation behaviour” value in data set [1] was “tended to aggregate, but did not form macroscopic membranes”.
In turn, “EP1594: EP1594L complexed to Gd(III) (GAEAEAKAKAEAEAKAK)” showed a relaxivity in data set [2] (0.5 T (20 MHz), 37±2° C.) of 22.0 mM⁻¹ s⁻¹.
Take “EP1594L: self-assembling peptide having a covalently attached metal binding moiety (bbDTPA) and an acidic group at the C-terminus ({bbDTPA″}-GAEAEAKAKAEAEAKAK; also: acidic group at C-terminus, not given here)”: the “aggregation behaviour” value in data set [1] is “tended to aggregate, but did not form macroscopic membranes”.
